# Measurements from the DeepSol protein solubility set.
# Test: soluble on expression in E. coli; label from the status in PepcDB or PDB records
row,Sequence,soluble on expression in E. coli
1,MYNDELIESSKIKWQLFLKGDDDAYAWLYSRYVQQLYQYGCRFTTDTEMVKDCVQDVFVNVYRQKDRYSSPPDNVKIYLMSSLRNSIFNVFNKGNLHDTYISNINYEFDLSVEEKLIETEDETSQKHTVAHLLNTLSPRQREIIYYRFFEGLDYSAICELMGLNYQSAYNLLQRSLSRLREMYGILPFFFLF,not soluble
2,MGSDKIHHHHHHMNEIAGIPYVEASFDKNGQGPEEEVALPAGVTDLIIMSHGWNNNKSKAEDLYNGFFASFAAAAQPNDLSARKLVILGVFWPSREYDTSVAVSGTPATGGGGAALGGGNGGSIKRLEEKLDDMKEIFTEAEQKKLLDEAKALLPDLEEKASVRDLFVNKMRSLLDPSAAGKEDASNIFFKDGGNELMKNLKAEEEDLGEDVAGGGAALPLGVSTPARAEGGAAGLVEILSGFKAAAINLLNYTTYYEMKTRSGTVGKNGVAPLIDKLASQVERIHLIGHSFGCRVVTSAALGSKTDKIKSMILLQAAFSQNGFSKIEQGFYRAIVDNHRVKGPVLITHTPNDRAVGLAYPLASRISGDKTMAFGDKDDLFGAMGRNGAQKMEQGEAVEGKLLSVGGPYAFKANTYFNLEASDFIKNHNDIKGKEVGYVVRKVVATAGMG,not soluble
3,MSDESEALLRVDHVKYRKAGDGKSPIGRLALFTDFIEWRDNASPEVFTCKFIRINGQRVSPPHKSKVQLQLILKNEDQATFVFLNPSASKEDLVKERDAVKEALQSALVKHRHRVNELAKSVESQSKQVELQAKQKILQEDRNLEKLYQNLVATKLITPDDFWSDYYQKEGVSEDKIGINGAFLANIVQQEGTNGVRLNLNPEIIQAIYSTYPAGQYWQNRENKKKCKEILKFTIQCEYLTRKISRSENYIQKKNLELVPHEMSEENFWKKFFQSHYFHREREVLPNPKDPFAECVRDDEEEMTKMTAEKIQRKRFDLEHIDDNGLRDFIHKSESQQKSAKTTLIKRCNYLSEKILATSWRSGEAAPTTSAAANQKKGFGVLDRLVAETETRLESEDLATKEAEDEVQIVRISSSAKASQAKYSKPDMTRYKALVTDYFQNSSVEDILHRNEMLLDQQEMETWEMEEAMETDNNEVPPPENWCQSAGDLAKVRDVHSAVREICRQFWKSFPPIDKASEEKLNRMAGTLSKYRDDIRNSDISKENLTHCIQMIDLAVDKFEAYEMKKMK,not soluble
4,MAHHHHHHMGSSSPSSLLPPALMPCHVWEGREEGISVETARGRREVEINRKKGHMASPKEMYEKECRALGVPPNSGLLRMLPESTVNLSGLSVMHLGHNFLGDRGVVPFVHIIAHASSLHTLNLRENGIGNEGVRVLCRGLRRLPALKVLELSGNPFTFLAARQLVYLCEDSPVLSVIGVEGTLMTEKLKTSIIHRIREAVKRREARKQLSQQPSADRDDGQKDMAEGVAEAEGKVVERAAPIAAEEATTLRSRNVGGPCLRKSVLSLVSQDSMSTAMSSKFKKNEPDDQAGPRGANEFASPCSPLPPPPPDDAHQSPLWFDASEDEEQKEEKKEISVATAENDEKMMIDTAGSISFLVDVEELRANSVERELRAQEEMLPWQVSRADDPLRSLHSTHTRIASHRTTEKRSESGTAISFPSSFTLELRTAEAEGKLAECTKSTKGDDFLDLLFGSEVD,not soluble
5,MRVYVFTPDGDVLDLPHGVTPLDFAYHVHSNLGHRCRGAKVNGHIVPLTYQLKTGDRVEVLTGKEIKPSRLEHHHHHH,not soluble
6,MSKQPMTPFEAIGGEQCIAILVDTFYSYVSKHPDLSPIFPEDLTETARKQKQFLTQYLGGPNLYTEEHGHPMLRARHLPFEITPKRAEAWLSCMEQAMDDTGVHGHIREFVFERLALTAQHMVNTPNETGEV,not soluble
7,MCHSGTFHLTAGESVEWVLTWAPSFEPHPPMPDYTRSLESTLSFWASWVEELPHQRLYDAEVRRSMLVLRALTDLQTGGIVAAPTTSLPEDFGGIRNWDYRYVWLRDSALTIEALVEYGFSQAALQWRTWLLRAIAGDPENLRIMYGLGGERHLPERELQHLRGYENSVPVRVGNGAAEQYQADVVGEVMVALETIRRAGCLEDEFSWGMQKAILDFQEANFDRKDQGIWEMRSEPQYFTHGRAMMWAGFDRGIKAIEEFNLDGPIERWRELRAKLREEIMTNGFNEEIQSFTQCYDNTQVDASLLQLAQIGFIGFDDPKMLSTVARIEQELLDAHGFLHRYHTDGSDGLAGDEYPFLICSFWLVEQYASSNRLDEAKEKMNRILAVQSPLGLLAEEYSTHHGRLAGNYPQAFSHIGLISAARAINFEEARNRLEHHHHHH,soluble
8,MGSDKIHHHHHHMVKKREGDEVQSELMRILAEKQERKENIALVTVISSNSPRGCRAGEMMLVDRFGYIIGDGIGDSLLQENAQREAQICINEGISRRVILPSEEGMTEVFINAFCHRDQLIIVGSGNVALNVYRIASIVGYSITVIDNRAETLSRERFPEAKELLLGDIVELLKAYNIDENTSIVLLSYHHEFDEAALLTVIHSPARYIGIMGNKHKVTAYFSKLNELNIAEELISRVHVPVGIDIGGERAAEIALAVVAEMQAIKYGRAGGFRILQSEITGKVERDELF,not soluble
9,ITLAVKVGMIQLCGCSGCHISLLDLHDKLLEVLPNLEIVYAPIIADPKEIPEGIDVFLVEGGIRNEHDEHLIHEIREKSKIVIAWGTCAAYGGIPGLGNLYKKEELLNYVYSTDSTENKGEIPSEEIPPLEEYVKPIKDFIKVDYTIPGCPPTPKMIADAIIALLNGEEPKLPTKIVC,not soluble
10,MGSDKIHHHHHHMAKIGRNEPCPCGSGKKYKRCCMSGVGKQQADFVDSIEQMLAMNPDLSMDELNIIAEHQSNKINTTPHKDFCGLAPGQVNNWLYAPFPELEGITINTPSDLSTSPVMRYLKLMLETALANGGQIKATAKGNLPAALVKEASAFLPEFAVAPFERAISISEFAGANEDKFNALHYCRVLAKIAGIFKLKSNKFHVSAWAKHQYQRAGLESFFPIMLETAVYKYNWGYFDLWENEIPLQHFWLFMLWRLQHHKSHERLVDEMIQAFPDLLNELYEEEYMSDRDKLAVLIESRFIHRFLQFFGFVMVDPRRVIDGKRVAAQVTCLRSMHETFNFRIE,not soluble
11,MKELVEIAVPENLVGAILGKGGKTLVEYQELTGARIQISKKGEFLPGTRNRRVTITGSPAATQAAQYLISQRVTYEQGVRASNPQKV,soluble
12,GSNEIKRGAVDLIKTGVNEKAMAGAVFSLFKKDGTEVKKELATDANGHIRVQGLEYGEYYFQETKAPKGYVIDPTKREFFVKNSGTINEDGTITSGTVVKMEVKNNEEPTIDKKINGKLEALPINPLTNYNYDIKTLIPEDIKEYKKYVVTDTLDNRLVIQGKPIVKIDGAEVNANVVEVAIEGQKVTATVKDFTKMDGKKEFHLQIKSQVKEGVPSGSEILNTAKIHFTNKNDVIGEKESKPVVVIPTTGIIELTKIDSANKNKMKGAEFVLKDNNGKIVVVAGKEVTGVSDENGVIKWSNIPYGDYQIFETKAPTYTKEDGTKTSYQLLKDPIDVKISENNQTVKLTIENNKS,soluble
13,GSPQLRQVGQIIRVPARMAATLILEPAGRCCWDEPVRIAVRGLAPEQPVTLRASLRDEKGALFQAHARYRADTLGELDLERAPALGGSFAGLEPMGLLWALEPEKPLVRLVKRDVRTPLAVELEVLDGHDPDPGRLLCQTRHERYFLPPGVRREPVRVGRVRGTLFLPPEPGPFPGIVDMFGTGGGLLEYRASLLAGKGFAVMALAYYNYEDLPKTMETLHLEYFEEAMNYLLSHPEVKGPGVGLLGISKGGELCLSMASFLKGITAAVVINGSVANVGGTLRYKGETLPPVGVNRNRIKVTKDGYADIVDVLNSPLEGPDQKSFIPVERAESTFLFLVGQDDHNWKSEFYANEACKRLQAHGRRKPQIICYPETGHYIEPPYFPLCRASLHALVGSPIIWGGEPRAHAMAQVDAWKQLQTFFHKHLGGHEGTIPSKVLEHHHHHH,soluble
14,MGSDKIHHHHHHMQDLLSQDEIDALLHGVDDGDIDTYEETDDTGVKNYDLASQDRIVRGRMPTLEMINERFARYTRISLFNLLRRNADVSTGGVQIMKFGEYIHTLYVPTSLNLCKVRPLRGTSLFVLDAKLVFKLVDNFFGGEGRHAKIEGREFTPTETRIVQMVLNQVFHDMKEAWHAVLQVEFEYLSSEVNPAMANIVSPSEVVVVSTFHIELDGGGGELHFALPYSMIEPIRDVLDAGVQSDIDDVDERWVNALQEDIKEVNVPINTTVCRRRISLRDIARMKAGDVIPVEIPEHLTVTANGIPIYKATLGTRDGKLALRIHDRAKLPKVKKQLKVGRNG,not soluble
15,MSNEVEQKKNIKTINDLPGISQTVINKLIEAGYSSLETLAVASPQDLSVAAGIPLSTAQKIIKEARDALDIRFKTALEVKKERMNVKKISTGSQALDGLLAGGIETRTMTEFFGEFGSGKTQLCHQLSVNVQLPPEKGGLSGKAVYIDTEGTFRWERIENMAKALGLDIDNVMNNIYYIRAINTDHQIAIVDDLQELVSKDPSIKLIVVDSVTSHFRAEYPGRENLAVRQQKLNKHLHQLTRLAEVYDIAVIITNQVMARPDMFYGDPTVAVGGHTLYHVPGIRIQLKKSRGNRRIARVVDAPHLPEGEVVFALTEEGIRDAEE,soluble
16,MKRQKRDRLERAQSQGYKAGLNGRSSEHCPYQSMDARSCWLGGWRDARDDKQSGLFKLEHHHHHH,not soluble
17,GKPIRSPGVLLDIDSRRTAEAERDRLNELLQIFTAAVPGVVYAKDLEGRMLVANRGTAELVGKPPEFFIGKTDLEFLDDEQQARVLMETDQRIMQSNVSEQIEEKVNLADGSAAIWLSTKAPLLDRN,not soluble
18,MKAVMLLSGGIDSSTLLYYLLDGGYEVHALTFFYGQKHSKEIESAEKVAKAAKVRHLKVDISTIHDLISYGALTGEEEVPKAFYSEEVQRRTIVPNRNMILLSIAAGYAVKIGAKEVHYAAHLSDYSIYPDCRKEFVKALDTAVYLANIWTPVEVRAPFVDMTKADIVRLGLKLGVPYELTWSCYEGGDRPCLSCGTCLERTEAFLANGVKDPLLSDEEWKNAVKIYEEMRARNEGKSD,not soluble
19,MAHTTGENLFTMKRVLRNLEADHDALREALADGRRMRDLLPYGDYINRYRNLTRDPMVVAIHKQFHESGLGGLTIDESMFPLSLRFEDDDVTLVFRRPEGFRHGTNEESSQRPLIERRSRIVLFWKYAEPGTDALKRISLQMFDNEGPLEEATMLSEKIPLLTKPESLTTAMFIPTHADEPRFVFGS,not soluble
20,MDVSEGGVTVSVPTASGGGEGAADDVFFNATQELNRDLTVATLAAFREREPRAASYLDAMTASGIRGVRAANAGWDVTMADVDADAVELATSNLARNGLDGEVVARDANSLLHDHDRVLDVVDIDPFGSPMPFADAAFANARNLVCVTATDTAPLCGAHFESGVRKYSATPRNTNYHAEMGLRILLGALARTAARYDVGVTPILSHVSDHYVRTYLELDHRATDANAAVEQVGHVYHCQQCLSRDHEYGLVAAPRAECPRCGGHQVLTAGPLWLGPAHEEAFAASVREQLTREMGEASQAFHLLQTIEGELHEPTHYDQHRLYSQWGEPAVGMAEFLDQLRDAGLRASRTHFGGTTFKTDGGLAEVEAAVLLEHHHHHH,soluble
21,PVSWVLQQAPTVKGLDIQGAHGSVWQGQASSVRWQRQNLGQVNWDFQWSSLFTGKAEFSVRFGRGSDMNIRGRGLVGYSLSDGLYAENLVASIPASKAVEQARLPVPIGVDGQLELNIRHATYAAPWCKTGEGTLVWSASGIQSPVGSLELGPVIADLKCQDSVLTASGEQTSTQVSSAFSAEMMPNQRYSTKAWFKPGADFPSSMGEQLKWLGQPNAQGQYEFDYKGRF,not soluble
22,SQLTHINAAGEAHMVDVSAKAETVREARAEAFVTMRSETLAMIIDGRHHKGDVFATARIAGIQAAKRTWDLIPLCHPLMLSKVEVNLQAEPEHNRVRIETLCRLTGKTGVEMEALTAASVAALTIYDMCKAVQKDMVIGPVRLLAKSGGKSGDFKVEADD,not soluble
